{
  "source": "patent EP4810515A1",
  "about": "(Shanghai Haiju Biological Technology Co., Ltd., dated 2026)",
  "binders": {"B1": {"name": "G2-CH17 (antibody, human IgG1, kappa, V domains shown)", "VH": "QVTLKESGPGILQPSQTLSLTCSFSGFSLNTSGMGVSWIRQPSGKGLEWLAHIYWDDDKRYNPSLKSRLTISKDTSRNQVFLKITGVDTADTAAYYCARTGWDFFDIWGQGTTLTVSS", "VL": "DIVMTQSQKFMSTSVGDRVSVTCKASQNVGSNVAWYQQKPGQSPKALIYSASYRYSGVPDRFTGSGSGTDFTLTITNVQSEDLAEYFCQQYKSYPLTFGAGTKLELKR", "notes": "chimeric: murine variable regions on human IgG1 constant region mutant (LALAGA, -K)"}},
  "key": {"[1]": {"target": "T1, mouse GDF15 recombinant protein (Kactus, GDF-MM215) (mouse, UniProt Q9Z0J7 189-303, limits assumed)", "T1 construct": "also called mGDF-15.hFc; murine GDF15; not shown: human Fc (hFc)", "T1 sequence (looked up)": "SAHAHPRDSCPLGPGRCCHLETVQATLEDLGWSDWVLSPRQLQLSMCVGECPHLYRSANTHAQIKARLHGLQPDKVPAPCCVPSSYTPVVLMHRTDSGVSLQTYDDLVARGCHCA", "assay": "ELISA, coated mGDF-15.hFc 2 ug/mL"}, "[2]": {"target": "T2, cynomolgus monkey GDF15 recombinant protein (Kactus, GDF-CM215) (cynomolgus monkey, UniProt G7PWZ3 197-308, limits assumed)", "T2 construct": "also called cynoGDF-15.hFc; cynoGDF15; not shown: human Fc (hFc)", "T2 sequence (looked up)": "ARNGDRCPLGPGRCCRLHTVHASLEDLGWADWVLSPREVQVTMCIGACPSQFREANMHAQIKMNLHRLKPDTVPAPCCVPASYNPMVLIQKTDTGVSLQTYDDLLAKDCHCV", "assay": "ELISA, coated cynoGDF-15.hFc"}, "[3]": {"target": "T3, human GDF15 recombinant protein (ACRO, GD5-H5149) (human, UniProt Q99988 197-308)", "T3 construct": "also called hGDF-15.His; hGDF15; not shown: His tag", "T3 sequence (looked up)": "T2 sequence (looked up) with R6H, H21R, E54A, M63T, N64S, V112I", "assay": "ELISA, coated hGDF-15.His"}},
  "note": "Residue numbers refer to the chain shown, from its start.",
  "data": [
    {"binder": "B1", "values": [
      {"measurement": "binding result", "setting": "[1]", "value": "no binding"},
      {"measurement": "EC50", "setting": "[2]", "value": 0.13, "unit": "nM"},
      {"measurement": "EC50", "setting": "[3]", "value": 0.00393, "unit": "nM"}
    ]}
  ]
}
